Data on 1 substance can be found in patent US20090214524A1.

The target of this experiment is Bub3 (UniProt O43684). Put plainly: cell-based or functional assay.
Sequence of UniProt O43684 (O43684 whole entry): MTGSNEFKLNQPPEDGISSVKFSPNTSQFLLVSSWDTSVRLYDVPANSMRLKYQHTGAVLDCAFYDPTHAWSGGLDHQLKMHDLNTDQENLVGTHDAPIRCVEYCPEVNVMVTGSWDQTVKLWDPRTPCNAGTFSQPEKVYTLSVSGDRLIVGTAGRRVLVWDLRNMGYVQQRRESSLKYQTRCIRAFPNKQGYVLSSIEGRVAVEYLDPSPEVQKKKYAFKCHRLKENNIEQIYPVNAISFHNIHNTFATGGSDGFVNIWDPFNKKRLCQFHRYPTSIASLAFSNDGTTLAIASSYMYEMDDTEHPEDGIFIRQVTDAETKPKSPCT

“myc-tagged siRNA-resistant wild type BubR1 (pcDNA3-myc-BubR1^ΔsiRNA) (from UniProt O60566 1-1050)” displayed a restoration of colcemid-mediated mitotic checkpoint arrest (BrdU incorporation) in T98G cells depleted of endogenous BubR1 of 50%.
